Test results reported in publication doi:10.1101/2020.09.30.318261.

Target: SARS-CoV-2 prefusion stabilised spike ectodomain trimer (SARS-CoV-2) (UniProt P0DTC2)
Experiment: cryo-EM structure

“SARS-CoV-2 prefusion stabilised spike ectodomain trimer (from UniProt P0DTC2 14-1200) (domain or fragment)” showed a stoichiometry N of 3.
